Results on 3 variants are retold here after article PMC9054839 (2022).

B1: C-terminally ypet-tagged full-length talin WT [mouse] / paxillin (endogenous, fibroblasts) [mouse (endogenous in talin^1/2dko fibroblasts)] (parent complex)
chain 1: MVALSLKISIGNVVKTMQFEPSTMVYDACRMIRERIPEALAGPPNDFGLFLSDDDPKKGIWLEAGKALDYYMLRNGDTMEYRKKQRPLKIRMLDGTVKTIMVDDSKTVTDMLMTICARIGITNHDEYSLVRELMEEKKDEGTGTLRKDKTLLRDEKKMEKLKQKLHTDDELNWLDHGRTLREQGVEEHETLLLRRKFFYSDQNVDSRDPVQLNLLYVQARDDILNGSHPVSFDKACEFAGFQCQIQFGPHNEQKHKAGFLDLKDFLPKEYVKQKGERKIFQAHKNCGQMSEIEAKVRYVKLARSLKTYGVSFFLVKEKMKGKNKLVPRLLGITKECVMRVDEKTKEVIQEWSLTNIKRWAASPKSFTLDFGDYQDGYYSVQTTEGEQIAQLIAGYIDIILKKKKSKDHFGLEGDEESTMLEDSVSPKKSTVLQQQYNRVGKVEHGSVALPAIMRSGASGPENFQVGSMPPAQQQITSGQMHRGHMPPLTSAQQALTGTINSSMQAVQAAQATLDDFETLPPLGQDAASKAWRKNKMDESKHEIHSQVDAITAGTASVVNLTAGDPAETDYTAVGCAVTTISSNLTEMSRGVKLLAALLEDEGGNGRPLLQAAKGLAGAVSELLRSAQPASAEPRQNLLQAAGNVGQASGELLQQIGESDTDPHFQDVLMQLAKAVASAAAALVLKAKSVAQRTEDSGLQTQVIAAATQCALSTSQLVACTKVVAPTISSPVCQEQLVEAGRLVAKAVEGCVSASQAATEDGQLLRGVGAAATAVTQALNELLQHVKAHATGAGPAGRYDQATDTILTVTENIFSSMGDAGEMVRQARILAQATSDLVNAIKADAEGESDLENSRKLLSAAKILADATAKMVEAAKGAAAHPDSEEQQQRLREAAEGLRMATNAAAQNAIKKKLVQRLEHAAKQAAASATQTIAAAQHAASAPKASAGPQPLLVQSCKAVAEQIPLLVQGVRGSQAQPDSPSAQLALIAASQSFLQPGGKMVAAAKASVPTIQDQASAMQLSQCAKNLGTALAELRTAAQKAQEACGPLEMDSALSVVQNLEKDLQEIKAAARDGKLKPLPGETMEKCTQDLGNSTKAVSSAIAKLLGEIAQGNENYAGIAARDVAGGLRSLAQAARGVAALTSDPAVQAIVLDTASDVLDKASSLIEEAKKASGHPGDPESQQRLAQVAKAVTQALNRCVSCLPGQRDVDNALRAVGDASKRLLSDSLPPSTGTFQEAQSRLNEAAAGLNQAATELVQASRGTPQDLARASGRFGQDFSTFLEAGVEMAGQAPSQEDRAQVVSNLKGISMSSSKLLLAAKALSTDPASPNLKSQLAAAARAVTDSINQLITMCTQQAPGQKECDNALRQLETVRELLENPVQPINDMSYFGCLDSVMENSKVLGEAMTGISQNAKNGNLPEFGDAIATASKALCGFTEAAAQAAYLVGVSDPNSQAGQQGLVEPTQFARANQAIQMACQSLGEPGCTQAQVLSAATIVAKHTSALCNSCRLASARTANPTAKRQFVQSAKEVANSTANLVKTIKALDGDFTEENRAQCRAATAPLLEAVDNLSAFASNPEFSSVPAQISPEGRAAMEPIVISAKTMLESAGGLIQTARALAVNPRDPPRWSVLAGHSRTVSDSIKKLITSMRDKAPGQLECETAIAALNSCLRDLDQASLAAVSQQLAPREGISQEALHTQMLTAVQEISHLIEPLASAARAEASQLGHKVSQMAQYFEPLTLAAVGAASKTLSHPQQMALLDQTKTLAESALQLLYTAKEAGGNPKQAAHTQEALEEAVQMMTEAVEDLTTTLNEAASAAGVVGGMVDSITQAINQLDEGPMGDPEGSFVDYQTTMVRTAKAIAVTVQEMVTKSNTSPEELGPLANQLTSDYGRLASQAKPAAVAAENEEIGAHIKHRVQELGHGCSALVTKAGALQCSPSDVYTKKELIECARRVSEKVSHVLAALQAGNRGTQACITAASAVSGIIADLDTTIMFATAGTLNREGAETFADHREGILKTAKVLVEDTKVLVQNAAGSQEKLAQAAQSSVATITRLADVVKLGAASLGAEDPETQVVLINAVKDVAKALGDLISATKAAAGKVGDDPAVWQLKNSAKVMVTNVTSLLKTVKAVEDEATKGTRALEATTEHIRQELAVFCSPEPPAKTSTPEDFIRMTKGITMATAKAVAAGNSCRQEDVIATANLSRRAIADMLRACKEAAFHPEVAPDVRLRALHYGRECANGYLELLDHVLLTLQKPNPDLKQQLTGHSKRVAGSVTELIQAAEAMKGTEWVDPEDPTVIAENELLGAAAAIEAAAKKLEQLKPRAKPKEADESLNFEEQILEAAKSIAAATSALVKAASAAQRELVAQGKVGAIPANALDDGQWSQGLISAARMVAAATNNLCEAANAAVQGHASQEKLISSAKQVAASTAQLLVACKVKADQDSEAMKRLQAAGNAVKRASDNLVKAAQKAAAFEDQENETVVVKEKMVGGIAQIIAAQEEMLRKERELEEARKKLAQIRQQQYKFLPSELRDEH
chain 2: not shown

Variants of B1 are the subject of the assay. Put plainly: anti-GFP immunoprecipitation, western blot quantification; talin1/2dKO fibroblasts, N = 3; parent: 1; read off a plot. (Immunoblotting shows a protein as a band on a membrane.)
Regarding chain 1 A680E, chain 1 K687E, chain 1 T2126E, chain 1 K2133E, the ratio to parent is about 0.28.

chain 1 A680E, chain 1 K687E: the ratio to parent was about 0.44.

With chain 1 T2126E, chain 1 K2133E, the ratio to parent is about 0.69.
